In patent publication US8741844B2, “Use of mutated antithrombins for treating or preventing coagulation disorders” (Universite Paris-Sud XI, priority 2007, dated 2014):

What was measured:
[1] = system: pentasaccharide bound murine antithrombin (plasma anti-Xa activity); assay: Anti factor Xa assay in mouse plasma supplemented with Fondaparinux; assay type: biochemical
Procedure: During the animal experimentation (see detailed protocol below), human mutated antithrombins compete with murine antithrombin for their binding to the pentasaccharide. Thus, preliminary in vitro assays are performed to determine the human mutated antithrombin concentration necessary to compete with the murine antithrombin present in mouse plasma supplemented with Fondaparinux.
These experiments are performed as described in section II-b, using mouse plasma instead of human plasma.

[2] = Heparin affinity column elution with NaCl gradient; assay type: binding
Procedure: Conditioned media are thawed, pooled, salt concentration adjusted to 0.4 M NaCl and then applied on an heparin immobilized column (Hitrap Heparin 5 ml or Heparin-sepharose CL6B 50 ml, GE Biological) equilibrated with 10 mM Tris, or with 20 mM phosphate buffer, 0.4 M NaCl and 0.1 mM EDTA, pH 7.4. The bound proteins are eluted in the same buffer with a gradient from 0.4 M to 2 M NaCl. The fractions eluted from 0.8 M NaCl and more contained only wild type antithrombin or mutated antithrombins with high heparin affinity. […] The collected fractions are pooled and the salt concentration is decreased either by over night dialysis against 10 mM Tris, or 20 mM phosphate, and 0.1 M NaCl, pH 7.4 at 4° C. or applied on an HiPrep 26/10 desalting column equilibrated with 10 mM Tris, or 20 mM phosphate, and 0.1 M NaCl, pH 7.4. The antithrombin is then concentrated by ion exchange chromatography using a “Resource Q” 1 ml column (GE, Biological) equilibrated with 10 mM Tris, or 20 mM phosphate, and 0.1 M NaCl, pH 7.4 and eluted in the same buffer with a NaCl gradient from […] to 0.5 M or 20 mM to 0.5 M. The antithrombin concentration in each elution fraction is estimated by absorbance at 280 nm with an absorption coefficient ε=0.65 g^−1·l·cm^−1 and the integrity of purified wild type antithrombin or mutated antithrombins is tested by western blotting using the same couple of antibodies as described before, and electrophoresis on 10% acrylamide/bisacrylamide gel in native and denaturing conditions followed by coomassie brilliant blue R-250 staining (FIG. 4). Then, the antithrombin preparation is aliquoted and stored at −80° C. before use for functional assay. The same procedure is used to purify plasma antithrombin (used as internal reference) from human plasma.

factor Xa = biological target: T1, factor Xa (Homo sapiens, UniProt P00742); assay: Kinetic assay of factor Xa inhibition by antithrombins in a purified system (chromogenic substrate, continuous or discontinuous); assay type: biochemical; conditions: for factor Xa inhibition in continuous method: saturating pentasaccharide concentration; for anticoagulant / anti-factor Xa activity / inhibition rate constant (kon) for factor Xa: discontinuous method; for factor Xa inhibitory activity: with or without pentasaccharide, compared with plasma / wild type antithrombin
T1 construct: purchased Kordia
Procedure: Briefly, factor Xa is incubated with an excess of tested antithrombins (corresponding to plasma antithrombin, or wild type antithrombin or mutated antithrombins and varying in each assay realized) in the presence or absence of pentasaccharide (Fondaparinux sodique, Arixtra®, GlaxoSmithKline) and the factor Xa residual activity is measured as a function of time. The pentasaccharide is added in excess in the reaction media so that every tested antithrombin is bound to the pentasaccharide. In the absence of pentasaccharide, polybrene is added in order to neutralize any sulfated glycosaminoglycan that may be present in the reaction media. The residual factor Xa activity is measured as the increase in absorbance at 405 nm resulting from cleavage of the chromogenic substrate (S2765 or S2222, Chromogenix) using a microplate reader (Dynatech MR 5000). The analysis of the data is performed using the GraphPad Prism version 3 software. Absorbance recording is continuous or discontinuous according to the expected inhibition rate constant (kon).
The inhibition rate constant (kon) is the second order rate constant given in M^−1·s^−1 which define the velocity of stable complex formation between protease and antithrombin (higher is the kon value, faster will the complex be established).
When the expected kon is lower than 10^4 M^−1·s^−1 the discontinuous method is used. Factor Xa (0.2 to 1 μM, or 0.1 to 1 μM) is incubated with tested antithrombins (0.2 to 10 μM, or 1 to 10 μM) in the presence of pentasaccharide (10 to 100 μM) or polybrene (100 μg/ml) in a final volume of 10 μl for 10 seconds to 5 hours, or 10 seconds to 24 hours. At the end of this incubation period, 190 μl of kinetic buffer containing 200 μM substrate is added and absorbance at 405 nm is recorded.
The kinetic rate constant (k) is estimated by fitting the substrate hydrolysis initial rate curve to equation (1) using non-linear regression with v0 and v∞ being the substrate hydrolysis rate at time to or too respectively. […] (1)
The inhibition rate constant (kon) is calculated from the rate constant (k) using equation (2) where AT is the tested antithrombin concentration. k=AT·kon (2)
When the expected kon is higher than 10^4 M^−1·s^−1′ the continuous method is used. The tested antithrombin (0.01 to 1 μM, or 0.1 to 1 μM) is incubated with the substrate (200 μM) in the presence of pentasaccharide or polybrene in a final volume of 100 μL, or 190 μl, and the reaction is started by addition of 100 μL, or 10 μL, of factor Xa (2 nM or 10 nM). The rate constant (k) is obtained by fitting the substrate hydrolysis curve to equation (3) or (3′) using non-linear regression analysis where A0 is the absorbance at t0, and vi and vs are respectively the initial and final rates of substrate hydrolysis in the absence of tested antithrombin. A405=A0+vi·(1−exp(−k·t))/k. (3) Equation (3′) is also used, particularly in presence of plasma. A405=A0+vs*t+(vi−vs)*(1−exp(−k·t))/k. (3′)
The inhibition rate constant (kon) is calculated from the kinetic constant (k) using equation (4) that takes into account the competitive effect of the substrate, with S being the initial substrate concentration, Km, the Michaelis constant for factor Xa-substrate interaction, AT the tested antithrombin concentration. k=(kon/(1+S/Km))·[AT] (4)
Mutated antithrombins and wild type AT inhibitory activity are measured in the same conditions and compared with plasma AT inhibitory activity.

[3] = in the presence of pentasaccharide

T1 sequence (P00742 235-488 limits assumed): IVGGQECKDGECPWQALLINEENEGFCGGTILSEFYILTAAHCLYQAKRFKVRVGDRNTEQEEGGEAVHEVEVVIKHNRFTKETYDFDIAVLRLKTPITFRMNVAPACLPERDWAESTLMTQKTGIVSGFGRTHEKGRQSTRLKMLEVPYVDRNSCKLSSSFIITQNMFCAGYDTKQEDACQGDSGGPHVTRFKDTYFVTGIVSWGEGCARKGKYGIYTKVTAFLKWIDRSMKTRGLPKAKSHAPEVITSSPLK
T1 sequence (P00742 41-179 partner limits assumed): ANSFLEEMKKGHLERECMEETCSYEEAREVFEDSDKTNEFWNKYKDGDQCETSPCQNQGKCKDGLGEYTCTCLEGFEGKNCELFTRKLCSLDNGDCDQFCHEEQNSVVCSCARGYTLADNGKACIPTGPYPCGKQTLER

factor Xa inhibitory activity (factor Xa)	kon, times lower than plasma AT (factor Xa; [3])	Molecule	effect on anti-Xa activity of pentasaccharide contained in mouse plasma [1]	elution from heparin affinity column compared with wild type antithrombin [2]	factor Xa inhibition in continuous method (factor Xa)	anticoagulant / anti-factor Xa activity (factor Xa; [3])	inhibition rate constant (kon) for factor Xa (factor Xa; [3]) [M⁻¹ s⁻¹]
negligible		AT-R393H: human antithrombin (SEQ ID NO:2) with substitution of the amino acid at position 393 by Histidine	significant decrease				
negligible	at least 7600 times	AT-N135Q-Pro394: human antithrombin with Proline inserted between 393 and 394 and substitution at 135 by Glutamine (protein, listed as Homo sapiens) HGSPVDICTAKPRDIPMNPMCIYRSPEKKATEDEGSEQKIPEATNRRVWELSKANSRFATTFYQHLADSKNDNDNIFLSPLSISTAFAMTKLGACNDTLQQLMEVFKFDTISEKTSDQIHFFFAKLNCRLYRKAQKSSKLVSANRLFGDKSLTFNETYQDISELVYGAKLQPLDFKENAEQSRAAINKWVSNKTEGRITDVIPSEAINELTVLVLVNTIYFKGLWKSKFSPENTRKELFYKADGESCSASMMYQEGKFRYRRVAEGTQVLELPFKGDDITMVLILPKPEKSLAKVEKELTPEVLQEWLDELEEMMLVVHMPRFRIEDGFSLKEQLQDMGLVDLFSPEKSKLPGIVAEGRDDLYVSDAFHKAFLEVNEEGSEAAASTAVVIAGRPSLNPNRVTFKANRPFLVFIREVPLNTIIFMGRVANPCVK	significant decrease	higher ionic strength than wild type antithrombin	slow factor Xa inhibitors	almost devoid of anti-factor Xa activity	33
negligible		AT-Pro394: human antithrombin with insertion of a Proline between positions 393 and 394 (protein, listed as Homo sapiens) HGSPVDICTAKPRDIPMNPMCIYRSPEKKATEDEGSEQKIPEATNRRVWELSKANSRFATTFYQHLADSKNDNDNIFLSPLSISTAFAMTKLGACNDTLQQLMEVFKFDTISEKTSDQIHFFFAKLNCRLYRKANKSSKLVSANRLFGDKSLTFNETYQDISELVYGAKLQPLDFKENAEQSRAAINKWVSNKTEGRITDVIPSEAINELTVLVLVNTIYFKGLWKSKFSPENTRKELFYKADGESCSASMMYQEGKFRYRRVAEGTQVLELPFKGDDITMVLILPKPEKSLAKVEKELTPEVLQEWLDELEEMMLVVHMPRFRIEDGFSLKEQLQDMGLVDLFSPEKSKLPGIVAEGRDDLYVSDAFHKAFLEVNEEGSEAAASTAVVIAGRPSLNPNRVTFKANRPFLVFIREVPLNTIIFMGRVANPCVK	significant decrease				
negligible		AT-ΔR393-S394: human antithrombin with deletion of the amino acids at positions 393 and 394 (protein, listed as Homo sapiens) HGSPVDICTAKPRDIPMNPMCIYRSPEKKATEDEGSEQKIPEATNRRVWELSKANSRFATTFYQHLADSKNDNDNIFLSPLSISTAFAMTKLGACNDTLQQLMEVFKFDTISEKTSDQIHFFFAKLNCRLYRKANKSSKLVSANRLFGDKSLTFNETYQDISELVYGAKLQPLDFKENAEQSRAAINKWVSNKTEGRITDVIPSEAINELTVLVLVNTIYFKGLWKSKFSPENTRKELFYKADGESCSASMMYQEGKFRYRRVAEGTQVLELPFKGDDITMVLILPKPEKSLAKVEKELTPEVLQEWLDELEEMMLVVHMPRFRIEDGFSLKEQLQDMGLVDLFSPEKSKLPGIVAEGRDDLYVSDAFHKAFLEVNEEGSEAAASTAVVIAGLNPNRVTFKANRPFLVFIREVPLNTIIFMGRVANPCVK	significant decrease				
negligible		AT-ΔR393: human antithrombin with deletion of the amino acid at position 393 (protein, listed as Homo sapiens) HGSPVDICTAKPRDIPMNPMCIYRSPEKKATEDEGSEQKIPEATNRRVWELSKANSRFATTFYQHLADSKNDNDNIFLSPLSISTAFAMTKLGACNDTLQQLMEVFKFDTISEKTSDQIHFFFAKLNCRLYRKANKSSKLVSANRLFGDKSLTFNETYQDISELVYGAKLQPLDFKENAEQSRAAINKWVSNKTEGRITDVIPSEAINELTVLVLVNTIYFKGLWKSKFSPENTRKELFYKADGESCSASMMYQEGKFRYRRVAEGTQVLELPFKGDDITMVLILPKPEKSLAKVEKELTPEVLQEWLDELEEMMLVVHMPRFRIEDGFSLKEQLQDMGLVDLFSPEKSKLPGIVAEGRDDLYVSDAFHKAFLEVNEEGSEAAASTAVVIAGSLNPNRVTFKANRPFLVFIREVPLNTIIFMGRVANPCVK	significant decrease				
negligible		AT-ΔS394: human antithrombin with deletion of the amino acid at position 394 (protein, listed as Homo sapiens) HGSPVDICTAKPRDIPMNPMCIYRSPEKKATEDEGSEQKIPEATNRRVWELSKANSRFATTFYQHLADSKNDNDNIFLSPLSISTAFAMTKLGACNDTLQQLMEVFKFDTISEKTSDQIHFFFAKLNCRLYRKANKSSKLVSANRLFGDKSLTFNETYQDISELVYGAKLQPLDFKENAEQSRAAINKWVSNKTEGRITDVIPSEAINELTVLVLVNTIYFKGLWKSKFSPENTRKELFYKADGESCSASMMYQEGKFRYRRVAEGTQVLELPFKGDDITMVLILPKPEKSLAKVEKELTPEVLQEWLDELEEMMLVVHMPRFRIEDGFSLKEQLQDMGLVDLFSPEKSKLPGIVAEGRDDLYVSDAFHKAFLEVNEEGSEAAASTAVVIAGRLNPNRVTFKANRPFLVFIREVPLNTIIFMGRVANPCVK	significant decrease				

Molecule	factor Xa inhibitory activity (factor Xa)	kon, times lower than plasma AT (factor Xa; [3])	effect on anti-Xa activity of pentasaccharide contained in mouse plasma [1]	elution from heparin affinity column compared with wild type antithrombin [2]	factor Xa inhibition in continuous method (factor Xa)	anticoagulant / anti-factor Xa activity (factor Xa; [3])	inhibition rate constant (kon) for factor Xa (factor Xa; [3]) [M⁻¹ s⁻¹]
AT-N135Q-R393H: human antithrombin with substitution at 393 by Histidine and at 135 by Glutamine	negligible		significant decrease	higher ionic strength than wild type antithrombin	slow factor Xa inhibitors	largely reduced	4415
